# Reference: PMC5762688 (Scientific Reports, 2018)
# Target: Importin α2/β1 heterodimer (mouse), tagless recombinant, preformed (mouse, UniProt P52293 1-529; P70168 1-876)
# Assay: […]; 10 mM Tris, 150 mM NaCl, 10% glycerol, 0.75 mM TCEP, pH 8.0; […]
# Details: both partners purified
binder,measurement,value
"Hendra virus V protein residues 1-405, tagless recombinant (domain or fragment) MDKLDLVNDGLDIIDFIQKNQKEIQKTYGRSSIQQPSTKDRTRAWEDFLQSTSGEHEQAEGGMPKNDGGTEGRNVEDLSSVTSSDGTIGQRVSNTRAWAEDPDDIQLDPMVTDVVYHDHGGECTGHGPSSSPERGWSYHMSGTHDGNVRAVPDTKVLPNAPKTTVPEEVREIDLIGLEDKFASAGLNPAAVPFVPKNQSTPTEEPPVIPEYYYGSGRRGDLSKSPPRGNVNLDSIKIYTSDDEDENQLEYEDEFAKSSSEVVIDTTPEDNDSINQEEVVGDPSDQGLEHPFPLGKFPEKEETPDVRRKDSLMQDSCKRGGVPKRLPMLSEEFECSGSDDPIIQELEREGSHPGGSLRLREPPQSSGNSRNQPDRQLKTGDAASPGGVQRPGTPMPKSRIMPIKKG",binding result,binds
